In assay [1] the test system is A549 lung cancer cells implanted subcutaneously. Kind of assay: Tumor growth in vivo, A549 implanted subcutaneously. More on the design: species or system athymic mice. Particulars: 6mg/kg intraperitoneally twice a week for 3 weeks; versus PBS or 1A7. The method, then: FIGS. 7A-7D: The EphA2 antibodies, EA2, Eph099B-208.261, and Eph099B-233.152, inhibit tumor cell growth in vivo. MDA-MB-231 breast cancer cells were implanted (A) orthotopically or (B) subcutaneously into athymic mice. (C) A549 lung cancer cells were implanted subcutaneously into athymic mice. After the tumors had grown to an average volume of 100 mm^3, mice were administered 6 mg/kg of the indicated antibody or negative control (PBS or 1A7 antibody) intraperitoneally twice a week for 3 weeks. Tumor growth was assessed and expressed as a ratio of the tumor volume divided by initial tumor volume (100 mm^3). (D) MDA-MB-231 breast cancer cells were implanted subcutaneously into athymic mice. After the tumors had grown to an average volume of 100 mm^3, mice were administered 6 mg/kg of the indicated antibody or negative control intraperitoneally twice a week for 3 weeks. Total tumor volume was determined after sacrifice. Negative control is black, EA2 is white, Eph099B-208.261 is dark grey, and Eph099B-233.152 is light grey.
5×10^6MDA-MB-231 breast cancer cells were implanted orthotopically or subcutaneously and 5×10^6 A549 lung cancer cells were implanted subcutaneously into athymic mice. […] Tumor growth was assessed and expressed either as a ratio of the tumor volume divided by initial tumor volume (100 mm^3) or as total tumor volume. […]

Another assay concerns the target T1, immobilized EphA2-Fc (Homo sapiens, UniProt P29317).
T1 construct: consisted of the extracellular domain of human EphA2 linked to human immunoglobulin
Kind of assay: BIACORE surface plasmon resonance kinetic analysis (Koff). The assay is classed as binding. To be noted: FIG. 15. An excerpt:
FIG. 15: Kinetic analysis of EphA2 monoclonal antibodies. BIACORE™ (surface plasmon resonance-based) assays were used to assay the kinetics of EphA2 monoclonal antibody binding to immobilized EphA2-Fc. Eph099B-208.261 is indicated by a solid line, Eph099B-233.152 is indicated by a dotted line, EA2 is indicated by a dashed line, and the negative control is indicated by squares.
The surface plasmon resonance-based BIACORE™ assay was used to measure the Koff rates of the monoclonal antibodies of the invention. IgG present in the hybridoma supernatant was used for measurement.
EphA2-Fc was immobilize to a surface on a CM5 sensorchip using a standard amine (70 μl of a 1:1 mix of NHS/EDC) coupling chemistry. Briefly, a 400 nM solution of EphA2-Fc in 10 mM NaOAc, pH4, was then injected over the activated surface to a density of 1000-1100 RU's. Unused reactive esters were subsequently “capped” with a 70 μl injection of 1M Et-NH2. Similarly, an activated and “capped” control surface was prepared on the same sensor chip without protein to serve as a reference surface.
A 250 μl injection of each of the EphA2 hybridoma supernatants was made over both the EphA2-Fc and control surfaces, and the binding responses were recorded. These supernatants were used undiluted. Following each injection, at least 10 min. of dissociation phase data was collected. […]
A general note: Surface plasmon resonance follows binding to a sensor surface in real time, without labels.

The test system of assay [2] is cancer cell colonies already formed in soft agar. Kind of assay: Elimination of cancer cell colonies already formed in soft agar. The assay is classed as cell-based. To be noted: antibodies added on third day; data not shown. On the procedure:
The ability of the antibodies of the invention to inhibit cancer cell formation in soft agar was assayed as described in Zelinski et al. (2001, Cancer Res. 61:2301-6). Briefly, cells were suspended in soft agar for 7 days at 37° C. in the presence of purified antibody or control solution (PBS). Antibodies were administered at the time of suspension in both bottom and top agar solutions. Colony formation was scored microscopically using an Olympus CK-3 inverted phase-contrast microscope outfitted with a 40× objective. Clusters containing at least three cells were scored as a positive.
The ability of the antibodies of the invention to eliminate cancer cell colonies already formed in soft agar was assayed. Assay methods were similar to those described above except that antibodies were not added to the cancer cells until the third day of growth in soft agar.

For assay [3], the target named is T2, EphA2-Ephrin A1-Fc complex (Homo sapiens, UniProt P29317).
T2 construct: consisting of the extracellular domain of EphA2 linked to human IgG1 constant region
Kind of assay: Binding of biotinylated protein to EphA2-Ephrin A1-Fc complex on microtiter plate. Particulars: FIG. 18A. On the procedure:
FIGS. 18A-18B: EphA2 EA2 epitope is distinct from Eph099B-233.152 epitope and ligand binding site. (A) EphA2-Fc was incubated with and bound to immobilized Ephrin A1-Fc. Labeled Ephrin A1-Fc (black), EA2 (white) or Eph099B-233.152 (grey) was incubated with the EphA2-Ephrin A1-Fc complex and amount of binding was measured. (B) EphA2-Fc was incubated with and bound to immobilized Ephrin A1-Fc. Labeled EA2 was then incubated with the EphA2-Ephrin A1 complex. Unlabeled competitor was incubated with EphA2-Ephrin A1-EA2 complex in the indicated amount. Competitors were Ephrin A1-Fc (black), EA2 (white) or Eph099B-233.152 (grey).
A microtiter plate was coated with […] Ephrin A1-Fc overnight at 4° C. A fusion protein consisting of the extracellular domain of EphA2 linked to human IgG1 constant region (EphA2-Fc) was incubated with and bound to the immobilized Ephrin A1-Fc. Biotinylated Ephrin A1-Fc, EA2, or Eph099B-233.152 was incubated with the EphA2-Ephrin A1-Fc complex and amount of binding was measured.

T1 sequence (P29317 24-537 limits assumed): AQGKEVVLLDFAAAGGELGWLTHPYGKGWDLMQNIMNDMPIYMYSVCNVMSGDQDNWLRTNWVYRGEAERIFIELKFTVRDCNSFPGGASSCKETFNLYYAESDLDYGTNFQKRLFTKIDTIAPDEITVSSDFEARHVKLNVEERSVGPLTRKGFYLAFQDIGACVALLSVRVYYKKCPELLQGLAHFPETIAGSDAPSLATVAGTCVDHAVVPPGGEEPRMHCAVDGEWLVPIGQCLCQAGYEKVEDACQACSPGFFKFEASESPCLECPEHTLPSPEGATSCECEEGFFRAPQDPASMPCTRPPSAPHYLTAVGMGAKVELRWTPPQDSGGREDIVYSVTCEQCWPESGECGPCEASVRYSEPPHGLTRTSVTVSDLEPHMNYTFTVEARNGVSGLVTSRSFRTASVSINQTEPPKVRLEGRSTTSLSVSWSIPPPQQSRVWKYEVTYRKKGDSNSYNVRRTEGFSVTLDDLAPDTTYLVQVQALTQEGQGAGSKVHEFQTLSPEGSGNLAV
T2 sequence (P29317 24-537 limits assumed): as above
T2 sequence (P20827 19-182 partner limits assumed): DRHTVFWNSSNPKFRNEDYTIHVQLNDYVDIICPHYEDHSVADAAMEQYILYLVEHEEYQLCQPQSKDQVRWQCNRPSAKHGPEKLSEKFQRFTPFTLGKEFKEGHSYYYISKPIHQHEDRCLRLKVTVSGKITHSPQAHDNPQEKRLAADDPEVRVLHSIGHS

B1: Eph099B-208.261: EphA2 monoclonal antibody; hybridoma ATCC PTA-4573; VL SEQ ID NO:1, VH SEQ ID NO:5 (antibody, listed as Homo sapiens, V domains shown)
VH: QVQLQQPGAELVKPGASVKLSCKASGYTFTSYWMHWVKQRPGQGLEWIGMIHPNSGSTNYNEKFKSKATLTVDKSSSTAYMRLSSLTSEDSAVYYCARGGNMVGGGYWGQGTTLTVSS
VL: QIVLTQSPALMSASPGEKVTMTCSASSSVSYMYWYQQKPRSSPKPWIYLTTNLASGVPARFSGSGSGTSYSLTISSMEAEDAATYYCQQWSSNPFTFGSGTKLEIR
With B1, in assay [1], the “Growth of A549 cells implanted subcutaneously” value is listed as “inhibited”. Besides, in the assay with immobilized EphA2-Fc, the “Koff rate compared with EA2” value is “slower Koff rates than EA2”. The “Effect on cancer cell colonies already growing in soft agar” value in assay [2] is “can slow or reduce cancer cell colony growth in soft agar”.

B2: Eph099B-233.152: EphA2 monoclonal antibody; hybridoma ATCC PTA-5194; VL SEQ ID NO:17, VH SEQ ID NO:21 (antibody, listed as Homo sapiens, V domains shown)
VH: EVKLVESGGGLVQPGGSLSLSCAASGFTFTDYSMNWVRQPPGKALEWLGFIRNKANDYTTEYSASVKGRFTISRDNSQSILYLQMNALRAEDSATYYCVRYPRYHAMDSWGQGTSVTVSS
VL: DIVLTQSPATLSVTPGDSVNLSCRASQSISNNLHWYQQKSHESPRLLIKYVFQSISGIPSRFSGSGSGTDFTLSINSVETEDFGMYFCQQSNSWPLTFGAGTKLELK
In the case of B2, the “Koff rate compared with EA2” value with immobilized EphA2-Fc is on record as “slower Koff rates than EA2”. Further, in assay [2], the “Effect on cancer cell colonies already growing in soft agar” value was “can slow or reduce cancer cell colony growth in soft agar”. Further, in assay [3], the “Amount of binding to EphA2-Ephrin A1-Fc complex” value is recorded as “considerable levels”.

B3: EA2: EphA2 agonistic monoclonal antibody; ATCC deposit no. PTA-4380; co-pending application Ser. No. 10/436,783; VL SEQ ID NO:33, VH SEQ ID NO:37 (antibody, listed as Homo Sapiens, V domains shown)
VH: DVKLVESGGGLVKPGGSLKLSCAASGFTFSSYTMSWVRQTPEKRLEWVATISSGGTYTYYPDSVKGRFTISRDNAKNTLYLQMSSLKSEDTAMYYCTREAIFTYWGQGTLVTVSA
VL: DIKMTQSPSSMYASLGERVTITCKASQDINNYLSWFQQKPGKSPKTLIYRANRLVDGVPSRFSGSGSGQDYSLTISSLEYEDMGIYYCLKYDEFPYTFGGGTKLEIK
Regarding B3, the “Growth of A549 cells implanted subcutaneously” value in assay [1] was “inhibited”. Moreover, the “Amount of binding to EphA2-Ephrin A1-Fc complex” value in assay [3] is “considerable levels”.
